According to patent US20160047810A1 (INSTITUT PASTEUR, published 2016):
Where a chain is given by its changes, count along the chain named.

T1: FtsZ (purified, from pET11a-ftsZ), P0A9A6
T1 chain: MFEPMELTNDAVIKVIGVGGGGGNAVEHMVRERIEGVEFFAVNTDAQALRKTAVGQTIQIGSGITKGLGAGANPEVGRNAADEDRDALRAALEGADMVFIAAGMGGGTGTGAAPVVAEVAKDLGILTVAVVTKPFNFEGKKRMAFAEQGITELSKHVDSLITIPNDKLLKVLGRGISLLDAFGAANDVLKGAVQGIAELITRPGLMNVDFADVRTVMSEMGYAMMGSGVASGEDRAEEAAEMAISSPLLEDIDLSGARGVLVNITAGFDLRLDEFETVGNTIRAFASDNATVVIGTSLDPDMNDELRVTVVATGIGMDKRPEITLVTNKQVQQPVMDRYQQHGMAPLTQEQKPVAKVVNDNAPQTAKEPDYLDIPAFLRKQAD

B1: E. coli K12 Lop1Δ1-59-H6 (protein)
chain: WGKREDTKHTPVRGLYMWGGVGRGKTWLMDLFYQSLPGERKQRLHFHRFMLRVHEELTALQGQTDPLEIIADRFKAETDVLCFDEFFVSDITDAMLLGGLMKALFARGITLVATSNIPPDELYRNGLQRARFLPAIDAIKQHCDVMNVDAGVDYRLRTLTQAHLWLSPLHDETRAQMDKLWLALAGGKRENSPTLEINHRPLATMGVENQTLAVSFTTLCVDARSQHDYIALSRLFHTVMLFDVPVMTRLMESEARRFIALVDEFYERHVKLVVSAEVPLYEIYQGDRLKFEFQRCLSRLQEMQSEEYLKREHLAG
B2: E. coli K12 Lop1-H6 (protein)
chain: MQSVTPTSQYLKALNEGSHQPDDVQKEAVSRLEIIYQELINSTPPAPRTSGLMARVGKLWGKREDTKHTPVRGLYMWGGVGRGKTWLMDLFYQSLPGERKQRLHFHRFMLRVHEELTALQGQTDPLEIIADRFKAETDVLCFDEFFVSDITDAMLLGGLMKALFARGITLVATSNIPPDELYRNGLQRARFLPAIDAIKQHCDVMNVDAGVDYRLRTLTQAHLWLSPLHDETRAQMDKLWLALAGGKRENSPTLEINHRPLATMGVENQTLAVSFTTLCVDARSQHDYIALSRLFHTVMLFDVPVMTRLMESEARRFIALVDEFYERHVKLVVSAEVPLYEIYQGDRLKFEFQRCLSRLQEMQSEEYLKREHLAG
B3: E. coli K12 Lop1K84A-H6 (protein)
chain: B2 chain with K84A
B4: FtsZ (purified, from pET11a-ftsZ) (other)
chain: T1 chain
notes: Used as GTP-induced polymers in the proteolysis assays; also called FtsZ polymers; Z-ring
B5: K12 H6-Lop1Δ1-59Δ303-375 (protein)
chain: WGKREDTKHTPVRGLYMWGGVGRGKTWLMDLFYQSLPGERKQRLHFHRFMLRVHEELTALQGQTDPLEIIADRFKAETDVLCFDEFFVSDITDAMLLGGLMKALFARGITLVATSNIPPDELYRNGLQRARFLPAIDAIKQHCDVMNVDAGVDYRLRTLTQAHLWLSPLHDETRAQMDKLWLALAGGKRENSPTLEINHRPLATMGVENQTLAVSFTTLCVDARSQHDYIALSRLFHTVMLFD

Legend:
[1] = target: T1, FtsZ (purified, from pET11a-ftsZ), …
[2] = target: the molecule itself; experiment: self-association, polymerization assay, ultracentrifugation and western blot

Row | Protein | FtsZ polymer proteolysis assay (ultracentrifugation, western blot) [1] | also measured
1 | B1 | incubation of FtsZ polymers with Lop1Δ1-59 in the absence of ATP caused its significant degradation (t=1 min, no FtsZ signal in the soluble fraction) | 
2 | B2 | The FtsZ polymers incubation with Lop1 lead to their slight degradation at t=3 min in an ATP-dependent manner | 
3 | B3 | no degradation of FtsZ polymers was observed with LOp1 K84A | 
4 | B4 |  | binding result [2]: binds
5 | B5 |  | FtsZ polymer proteolysis assay (1 min at 30° C., western blot of the pellet) [1]: the 73aa C-terminal fragment of Lop1Δ1-59 was required for the proteolytic degradation of FtsZ polymers
